Measured values from a protein production outcome set (Wang et al. 2014).

Experiment: label from the status in PepcDB records
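Also: failed if final PepcDB status was selected cloned or expressed and not failed if soluble or beyond.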

MRVAIPAEDDRGIKSNVSKHFGRSRYFVFVDIEGEDVKNVEVVEVPFEEHGPGDLPNFIKDHGAKIVLTYGIGRRAIEYFNSLGISVVTGVYGRISDVIKAFIGGKLKIDYDWKEKIEKEH
protein production: not failed

MSLQTRKQREDAKREAWKKERQEKKALEAQQDSVSYVQAINALKNGSFVLEADNVVFRNGIMRFVSSNTNYVEVNDGQGIIQTAFTNFVYNWSPNGLGGVTVQGNVNGISMRQDKDGNVYYNYGINGIAVSATVSIVLTGGTNQASVTINPNFSGNTLTMNGYLVPYNEGHHHHHH
protein production: not failed

MLDDVLALIREHDRFFITTHLGPDGDAVGSQLALGRFLEKMGKSVAMVNADEVDYNLDWMPGAGDIAVFDGSLGQHEALAEAEVAFVLDTNDEERIGKVGSLVRDATATTVLVDHHLEPEHWFDVFFVREEAAATGELVYEIIDGLAPDLIDEGIATALYTAIMTDTGSFRYSSVTPALHRSVADILERGGIGPAPIHETIYDRKSMPGLRLLGRMLNRIRLRYNGQLGYSVVTQRMVEDTGASWDDKQGFVNYVLSIEDVKTALLFSETDDGAKISFRSEADVRVDQWARHFGGGGHRNAAGAYVKRPTFEKTIETVIDAASDYIAFDARHAPDDDLSPEDQSYLETLLDDPSDSPLEHHHHHH
protein production: failed

MGLPLVLDFDLYFCLMKCFIHQQLHLKVGYRLTERFVKTFGEERDGVWFYPRPEDIAARSYDDLRALQLSRRKAEYIVDVSRLIADGTLRLDDLEQMEDGEVMERLTAIRGIGPWTVQNFLLFGLEHHHHHH
protein production: failed

MNYAFVVQARLGSTRLPGKILKPFYGNQSILDLMVHKLSAISNIPVIIATTNSVINEPIEKKALALGVKCFRGEENDVLKRFIDVAEYFDIQGIFRICSDNPFLDVHAARQLVEIAMKSCNDYISFDIDGTPSIKTHFGFWGEFVTLDALKRVIGFTDDLLYREHVTNYIYSHPELFNIQWISGSPVVSKHHNIRLTIDTLEDFSVAQRIYRDLQEKRVEISIEVIVDYVRRHAEYIQLMKQQIKKNSKLEHHHHHH
protein production: not failed

MSLITNAKLYPPRHPRAVHLAHHLAAIAPGVLVTAAIAAAAVGLRAIPGMPGISPMLLAILIGIVAHNGIGTPSWAVPGVKFSLRRVLRFAIILLGLQLTTAQLIEVGGEGLAIIAATLLATFCFTVWFGRVLGVDRKLTELIAAGTSICGASAIIATNTVTRADDEDVAYGVACVTVFGSLAMVSYPLLQSVLNLDAHGFGLWTGASIHEIAQAVAVSFQGGQRAGEFGTIAKLSRVMMLAPLVIGLGMLARVRAKHQPAGDHTATPPMPWFVLGFVAMIGVNEFVAIPHEAKSWIVAITAFLLSMALAAMGLETDLRKLAARGLRPALLGLTASLFIAGFSLALIKLTGWHG
protein production: failed

MSVKKERVDVLLVERGLIETREKAKRAIMAGLVYANEMRLDKPGEKISQDTEITVKGQVMPYVSRGGYKLEKALETFHLDLQDKVMIDIGSSTGGFTDCALQNGAKLSYALDVGYNQLAWKLRQDERVVVMERTNFRYVTPADLERGLPQFASIDVSFISLKLILPVLKTMLMPNGDVAALIKPQFEAGREQVGKKGIVRDRKVHEAVVEMIVEFALKEGYDVEGLTFSPITGGDGNIEFLIHLKWHGERENGENHSPISIEQVVTEAHEVLKQKGKGE
protein production: failed

MSKCGVRARLLGLCTERASAWAMALIALVAGGLLTAALAFAAHTFYKQQLRQRFELLASERASRIAERFDEQQQRLDGLRRFFSFSSEITPREFDGYARPLLQRTLAYAWAPRVEAAQRAEFERLASAHTGPGYVIRDQDAQGQWRPASQRDHYFPVLYTQSSERPGLPYGLDLAGQSEPQAALARALAPALAPGSMAVSEPLALFDTQSAERGLLMVAPVFSDADPRGAAVGYVMALLSMRELVSDGRPVAVDDNLVVRITDPSGLQGPVVLFDSQNPVAPLALASNQLLRLADHHFQLSIQPSQAFAQANRSSAVMAVGLLGGLLSLLLSVLLYSLFSQRQRALALVAQRTAELQVSEQSLRGTHNQLRSVLDAATQVAIIATNLKGVVSTFNAGAERMLGYAASEAIGRLRLEDLVLPEELNLRAQALSLRFGRAIAGGQAMFAETVQEHGAEPGEWTLLRADGSQLVANMLVTAMLDEQGLWVGYLAICIDVTERRRVHEALAARDRLLEKLSAEVPGGIYQYRLDANGHSCFPYASMGLYDIYEIDLMQLREDASAVFERIHPDDLERVRRSVRYSAEHLSPWREEYRVCLPRAGLRWVRGEATPEVGEQGCTLWHGYLTDISDLKGVEEELRALSVTDSLTGIHNRRYFQERLKIELERAQRDGLPLAVIMLDIDHFKRINDRFGHAVGDRVLRSLCQRIAQRLRRTDVFCRLGGEEFMVLCPGSDANQARLLALELWQGVRNVPVEGVGQVTASFGVAGWRSGEGADALLLRADAGVYAAKQAGRDRVEGEPV
protein production: failed

LTVHYDLQLYKINYKTQSPDGNLTIASGLVAMPIHPVGQVGIISYQHGTRFERNDVPSRNNEKNYIYLAAYGNSAGYMTVMPDYLGLGDNELTLHPYVQAETLASSSIDMLFAAKELANRLHYPISDKLYLAGYSEGGFSTIVMFEMLAKEYPDLPVSAVAPGSAPYGWEETMHFVMLEPGPRATAYLAYFFYSLQTYKSYWSGFDEIFAPPYNTLIPELMDGYHAVDEILQALPQDPLLIFQPKFSNGIISKTDRNTEILKINFNHYDFKPTAPLLLVGTKGDRDVPYAGAEMAYHSFRKYSDFVWIKSVSDALDHVQAHPFVLKEQVDFFKQFERQE
protein production: not failed

MGNGVQPLDPVAIQIGSISVKWYGVIIASAVVIALLLALSEANKRKMDKEIIVDLLIWAIPISIISARIYYVIFEWDFYKNNLGEIVKIWHGGIAIYGALIGAVLTAIIFSRIKKISFWQLADVVAPSLIIAQAIGRWGNFMNQEAHGAETTRSFLESLHLPDFIINQMYIDGAYYQPTFLYESLWNVLGFVILLIIRRTKIRRGELFLGYVIWYSFGRFFIEGMRTDSLMWGDFRVSQALSLLLIVLSIGIIIYRRLKMNPPYYMEDKFGKVVKKK
protein production: not failed

MDLSSPSSFTATIDAPLRAAVFDSAVEAVLLVDPTLDQIVDANNAASALLGHDRDTLLQTRFSALHGAQLPALVVFTQAVFAKGTYWTHALTPLHADGTQLRLEYAGKLLPYRGRSLLLLTMSDLEQ
protein production: failed

MKSVFHLWRSHMRHLNDMALFVEVARARSFRKAAEALGMPNSTLSRRVSELEKAIGLRLLHRTTRKIELTEAGQLYYERSKRIVDEARLAHEQLGAMLNQPSGVLRVSLPVNLATFYLTPIIGEFARHYPGITFEFDLTPRRVDLVAEPFDVAIRIGKLEDSGLITRLIGRHSRHLYASPGYIEASGEPATPAELAEHECIGMLRSPIWSLHQGINKVDVAVRGRFTLNSVGMIRALAVNHQGIALLPEKIVAEDVAFGRLRRILPEWQGSAVSIFAVTETRLIPAKTQRFIEFLSSRLMEA
protein production: failed

MRRSKADVERYIASVQGSAPSPREKSMKGFYFAKLYYEAKEYDLAKKYISTYINVQERDPKAHRFLGLLYEVEENIDKAVECYKRSVELNPTQKDLVLKIAELLCKNDVTDGRAKYWVERAAKLFPGSPAIYKLKEQLLDCKGEDGWNKLFDLIQSELYARPDDIHVNIRLVELYRSNKRLKDAVAHCHEADRNTALRSSLEWNLCVVQTLKEYLESLQCLDSDKSTWRATNKDLLLAYANLMLLTLSTRDVQEGRELLESFDSALQSVKSSVGGNDELSATFLETKGHFYMHVGSLLLKMGQQSDIQWRALSELAALCYLVAFQVPRPKVKLIKGEAGQNLLETMAHDRLSQSGHMLLNLSRGKQDFLKEVVESFANKSGQSALCDALFSSQSSKERSFLGNDDIGNLDGQVPDPDDLARYDTGAVRAHNGSLQHLTWLGLQWNSLSTLPAIRKWLKQLFHHLPQETSRLETNAPESICILDLEVFLLGVIYTSHLQLKEKCNSHHTSYQPLCLPLPVCRQLCTERQKTWWDAVCTLIHRKALPGTSAKLRLLVQREINSLRGQEKHGLQPALLVHWAQSLQKTGSSLNSFYDQREYIGRSVHYWRKVLPLLKMIRKKNSIPEPIDPLFKHFHSVDIQASEIGEYEEDAHITFAILDAVNGNIEDAMTAFESIKNVVSYWNLALIFHRKAEDIENDALSPEEQEECKNYLRKTRDYLIRILDDSDSNTSVVQKLWYISKQQKFGIWGWEDCTSVRV
protein production: failed

MAPRTYASVLTTPRGPAPLALYCPEAPECPKLEAISNLSFQQITQQAGTSNDQGFEFENTYVEHRINQEIESFVDTHHQEPLRKAAAQFRAVMKQEYPDSTCFITGSYPAGVDIFSSDIDFTVKVPTLEGANPFLKLMQLRKELSCYYTIFSKAYVQKGNIPVLQLMHAETKVSIDVTIDNDTSKRNTQLLAFYSQLDTRFPLLCKAMKAWAASCGVEGASRGRLNSFSLCLMLIHYLQTVQVLLNIQEIFPELNGDIVVEDDNYMKRDLKIEILEKGAFDFNQNTSSLAVLFIGFMKYYSEFNFKWNWISIKHGNVLKKKWSKTRVPKNGMPKDCRFIVVADPLLEIPRNCAGTVRQQNYMERIQLEFREEYERILKRKTIFNLYQCNWSRKLRKEGMERDLQIMILQDELRKLRIANLPTEEEVPWGTVVDFTSPRTFSPTNQHPKVFWCSEQTTENQRRDNLWPELLRTNPYAIFENLI
protein production: not failed

MQKIIDDSLELAKKLQDSISNHLSDQEKAFHSKMQKLLNNPENKVMLIELMDRSFRCLDNKARFEMIEHVLDKYKSREIFSPFEKVLLMGFLSFGKMLPDMSVPFFVNKIRSDTKAMVLDQEESQLKERILKRKNEKIILNVNFIGEEVLGEEEANARFEKYSQALKSNYIQYISIKITTIFSQINILDFEYSKKEIVKRLDALYALALEEEKKQGMPKFINLDMEEFRDLELTVESFMESIAKFDLNAGIVLQAYIPDSYEYLKKLHAFSKERVLKGLKPIKIRFVKGANMESEETIASVKDWALPTFSNKQDTDSNYNKMLDFVLEGDNYKYIHIGAASHNIFEIAYVYTRIHAINDPVVLEHFSFEMLEGMSLQASQELKEMHKLILYAPVCDEAHFNNAIAYLVRRLDENTSSDNFMKAFFNLKVGTSEWKDQEQRFLNSLKGIATLDNATHRTQDRNAKQSGHTTYPNHSFKNESDTDFILKANREWAKKVREKMRNAPILELYPEMDGRFEDPNLTPLEVFDRIHHKKIASVHLADKEAILKALEVAKSDKSRFSQKSFTEIHALMSQTAQLFRERRGDLIGISALEVGKTFAETDAEVSEAIDFLEFYPYSLRVLQEQNTKTQFTPKGVGVVIAPWNFPVGISVGTIAAPLATGNRVIYKPSSLSSVTGYKLCECFWDAGVPRDALIYLPSKGSDISEHLLRDESIQFAILTGGEDTAYKMLKANPTLALSAETGGKNATIVSKMADRDQAIKNVIHSAFSNSGQKCSATSLLVLEKEVYEDENFKKTLIDATLSLSVGDPFDFKNKIGALADKPNEKVIKAIDELKSYENYEIPVSFVNDNPYLMKPSIKYGTKKGDFTHQTELFTPILSVMEAKDLDEAIEIANSTGYGLTSALESLDEREWEYYLERIEAGNIYINKPTTGAIVLRQPFGGVKKSAVGFGRKVGIFNYITQFVNICQEEEDENALKNPLSEALENLTQKGYDEHTHELKRAIFMAKSYAYHYKHEFSQTKDYVKIRGEDNLFSYTKVKSVGYRITEKDTLSDMLGVALACLISQIPLTLSIENERTNKDLTFFLECLKALQASAPIVYESLQKFSEKLNTFNRVRYLKSDLDLLHEQASALGMVLATAKPCLNGRFELLYYHLERSVSISYHRYGNLGSRVLRQPTCHKSCCAEK
protein production: failed

MEMYFKRMKDEWTGLVEQADPPIRAKAAEIAVAHAHYLSIEFYRIVRIDPHAEEFLSNEQVERQLKSAMERWIINVLSAQVDDVERLIQIQHTVAEVHARIGIPVEIVEMGFRVLKKILYPVIFSSDYSAAEKLQVYHFSINSIDIAMEVMTRAFTFSDSSASKELEHHHHHH
protein production: not failed

MWSFIQKIFKALIIAPLDFITKYFKSFVLLLIVLVFFSAKESAPSAPPNLAKLYLNGAIFSTEDFDKEVDKILKTPSIKGVLLLIDSPGGAVSASVELSEKIADLKQKMPVLAYARGVMASGSYYAGMQASEVYASKASLIGSIGVIFSGANVENLLNKVGVATQGVHAGEYKEIGTFTRAWKPNEKDFLQNLVNEQYQMFVNDVAKARKLDAKDYKDFAEGKVFSAQKALKLKLIDKISTIKQAQDRLMELSKVKKAYWLEKSPMERFIEKATQSATNIITQAFGYQLLMR
protein production: failed
